# Reference: the Human Domainome abundance scans (Beltran et al. 2025)
# ± gives the uncertainty stated by the source.
# B1: Intersectin-1, residues 1156 to 1213; numbered along this chain, Q15811 (parent)
# chain: AVCQVIGMYDYTAQNDDELAFNKGQIINVLNKEDPDWWKGEVNGQVGLFPSNYVKLTT
# Variants of: B1
# Experiment: abundance fitness (aPCA) (normalised: wild type 0, dead -1); higher = more abundant; growth selection in yeast, the domain comes from the species named
# Conditions: Homo sapiens
row,Variant,abundance fitness
1,AVCQVIGMYDYTAQNDDELAFNKGQIINVLNKEDPDWWKGEKNGQVGLFPSNYVKLTT [V42K],-0.405 ± 0.33
2,AVCQVIGMYDYTAQNDDELAFNKGQIINVLNKEDPDWWKGERNGQVGLFPSNYVKLTT [V42R],-0.274 ± 0.1
3,AVCQVIGMYDYTAQNDDELAFNKGQIINVLNKEDPDWWKGEYNGQVGLFPSNYVKLTT [V42Y],0.042 ± 0.19
4,AVCQVIGMYDYTAQNDDELAFNKGQIINVLNKEDPDWWKGELNGQVGLFPSNYVKLTT [V42L],0.018 ± 0.1
5,AVCQVIGMYDYTAQNDDELAFNKGQIINVLNKEDPDWWKGEANGQVGLFPSNYVKLTT [V42A],0.041 ± 0.093
6,AVCQVIGMYDYTAQNDDELAFNKGQIINVLNKEDPDWWKGEQNGQVGLFPSNYVKLTT [V42Q],-0.617 ± 0.32
7,AVCQVIGMYDYTAQNDDELAFNKGQIINVLNKEDPDWWKGETNGQVGLFPSNYVKLTT [V42T],-0.299 ± 0.17
8,AVCQVIGMYDYTAQNDDELAFNKGQIINVLNKEDPDWWKGEINGQVGLFPSNYVKLTT [V42I],-0.048 ± 0.13
9,AVCQVIGMYDYTAQNDDELAFNKGQIINVLNKEDPDWWKGEPNGQVGLFPSNYVKLTT [V42P],-0.72 ± 0.26
10,AVCQVIGMYDYTAQNDDELAFNKGQIINVLNKEDPDWWKGEENGQVGLFPSNYVKLTT [V42E],-0.949 ± 0.22
11,AVCQVIGMYDYTAQNDDELAFNKGQIINVLNKEDPDWWKGEDNGQVGLFPSNYVKLTT [V42D],-0.663 ± 0.17
12,AVCQVIGMYDYTAQNDDELAFNKGQIINVLNKEDPDWWKGEHNGQVGLFPSNYVKLTT [V42H],-0.237 ± 0.17
13,AVCQVIGMYDYTAQNDDELAFNKGQIINVLNKEDPDWWKGECNGQVGLFPSNYVKLTT [V42C],0.091 ± 0.13
14,AVCQVIGMYDYTAQNDDELAFNKGQIINVLNKEDPDWWKGENNGQVGLFPSNYVKLTT [V42N],-0.756 ± 0.48
15,AVCQVIGMYDYTAQNDDELAFNKGQIINVLNKEDPDWWKGEWNGQVGLFPSNYVKLTT [V42W],-0.811 ± 0.21
16,AVCQVIGMYDYTAQNDDELAFNKGQIINVLNKEDPDWWKGEMNGQVGLFPSNYVKLTT [V42M],-0.093 ± 0.18
17,AVCQVIGMYDYTAQNDDELAFNKGQIINVLNKEDPDWWKGEGNGQVGLFPSNYVKLTT [V42G],-0.62 ± 0.094
18,AVCQVIGMYDYTAQNDDELAFNKGQIINVLNKEDPDWWKEEVNGQVGLFPSNYVKLTT [G40E],-0.769 ± 0.16
19,AVCQVIGMYDYTAQNDDELAFNKGQIINVLNKEDPDWWKLEVNGQVGLFPSNYVKLTT [G40L],-0.783 ± 0.12
20,AVCQVIGMYDYTAQNDDELAFNKGQIINVLNKEDPDWWKVEVNGQVGLFPSNYVKLTT [G40V],-0.891 ± 0.14
21,AVCQVIGMYDYTAQNDDELAFNKGQIINVLNKEDPDWWKYEVNGQVGLFPSNYVKLTT [G40Y],-0.73 ± 0.19
22,AVCQVIGMYDYTAQNDDELAFNKGQIINVLNKEDPDWWKWEVNGQVGLFPSNYVKLTT [G40W],-0.981 ± 0.18
23,AVCQVIGMYDYTAQNDDELAFNKGQIINVLNKEDPDWWKSEVNGQVGLFPSNYVKLTT [G40S],-0.839 ± 0.11

row,Variant,abundance fitness
1,AVCQVIGMYDYTAQNDDELAFNKGQIINVLNKEDPDWWKFEVNGQVGLFPSNYVKLTT [G40F],-0.953 ± 0.3
2,AVCQVIGMYDYTAQNDDELAFNKGQIINVLNKEDPDWWKHEVNGQVGLFPSNYVKLTT [G40H],-0.832 ± 0.21
3,AVCQVIGMYDYTAQNDDELAFNKGQIINVLNKEDPDWWKTEVNGQVGLFPSNYVKLTT [G40T],-0.56 ± 0.17
4,AVCQVIGMYDYTAQNDDELAFNKGQIINVLNKEDPDWWKIEVNGQVGLFPSNYVKLTT [G40I],-0.752 ± 0.26
5,AVCQVIGMYDYTAQNDDELAFNKGQIINVLNKEDPDWWKKEVNGQVGLFPSNYVKLTT [G40K],-0.848 ± 0.19
6,AVCQVIGMYDYTAQNDDELAFNKGQIINVLNKEDPDWWKMEVNGQVGLFPSNYVKLTT [G40M],-0.658 ± 0.17
7,AVCQVIGMYDYTAQNDDELAFNKGQIINVLNKEDPDWWKPEVNGQVGLFPSNYVKLTT [G40P],-0.591 ± 0.16
8,AVCQVIGMYDYTAQNDDELAFNKGQIINVLNKEDPDWWKGIVNGQVGLFPSNYVKLTT [E41I],-0.936 ± 0.29
9,AVCQVIGMYDYTAQNDDELAFNKGQIINVLNKEDPDWWKGHVNGQVGLFPSNYVKLTT [E41H],-0.495 ± 0.28
10,AVCQVIGMYDYTAQNDDELAFNKGQIINVLNKEDPDWWKGDVNGQVGLFPSNYVKLTT [E41D],-1.11 ± 0.41
11,AVCQVIGMYDYTAQNDDELAFNKGQIINVLNKEDPDWWKGWVNGQVGLFPSNYVKLTT [E41W],-0.642 ± 0.15
12,AVCQVIGMYDYTAQNDDELAFNKGQIINVLNKEDPDWWKGGVNGQVGLFPSNYVKLTT [E41G],-0.842 ± 0.11
13,AVCQVIGMYDYTAQNDDELAFNKGQIINVLNKEDPDWWKGFVNGQVGLFPSNYVKLTT [E41F],-1.22 ± 0.3
14,AVCQVIGMYDYTAQNDDELAFNKGQIINVLNKEDPDWWKGYVNGQVGLFPSNYVKLTT [E41Y],-0.887 ± 0.23
15,AVCQVIGMYDYTAQNDDELAFNKGQIINVLNKEDPDWWKGAVNGQVGLFPSNYVKLTT [E41A],-0.568 ± 0.12
16,AVCQVIGMYDYTAQNDDELAFNKGQIINVLNKEDPDWWKGVVNGQVGLFPSNYVKLTT [E41V],-0.681 ± 0.12
17,AVCQVIGMYDYTAQNDDELAFNKGQIINVLNKEDPDWWKGKVNGQVGLFPSNYVKLTT [E41K],-0.456 ± 0.15
18,AVCQVIGMYDYTAQNDDELAFNKGQIINVLNKEDPDWWKGCVNGQVGLFPSNYVKLTT [E41C],-0.787 ± 0.2
19,AVCQVIGMYDYTAQNDDELAFNKGQIINVLNKEDPDWWKGQVNGQVGLFPSNYVKLTT [E41Q],-0.863 ± 0.24
20,AVCQVIGMYDYTAQNDDELAFNKGQIINVLNKEDPDWWKGSVNGQVGLFPSNYVKLTT [E41S],-0.299 ± 0.1
21,AVCQVIGMYDYTAQNDDELAFNKGQIINVLNKEDPDWWKGPVNGQVGLFPSNYVKLTT [E41P],-1 ± 0.21
22,AVCQVIGMYDYTAQNDDELAFNKGQIINVLNKEDPDWWKGNVNGQVGLFPSNYVKLTT [E41N],-0.889 ± 0.25
23,AVCQVIGMYDYTAQNDDELAFNKGQIINVLNKEDPDWWKGRVNGQVGLFPSNYVKLTT [E41R],-0.746 ± 0.097
